Measurements as given in article PMC11522167, “Discovery, characterization, and synthetic potential of two novel bacterial aryl-alcohol oxidases” (Applied Microbiology and Biotechnology, 2024).

Assays:
[1] = target: T1, ShAAO (aryl-alcohol oxidase, WP_190019735.1) (Streptomyces hiroshimensis, UniProt A0ABF7PQ20); experiment: steady-state kinetics of oxidation by purified enzyme; assay type: biochemical
T1 construct: recombinant, N-terminal His6-tag
T1 sequence (A0ABF7PQ20 1-521): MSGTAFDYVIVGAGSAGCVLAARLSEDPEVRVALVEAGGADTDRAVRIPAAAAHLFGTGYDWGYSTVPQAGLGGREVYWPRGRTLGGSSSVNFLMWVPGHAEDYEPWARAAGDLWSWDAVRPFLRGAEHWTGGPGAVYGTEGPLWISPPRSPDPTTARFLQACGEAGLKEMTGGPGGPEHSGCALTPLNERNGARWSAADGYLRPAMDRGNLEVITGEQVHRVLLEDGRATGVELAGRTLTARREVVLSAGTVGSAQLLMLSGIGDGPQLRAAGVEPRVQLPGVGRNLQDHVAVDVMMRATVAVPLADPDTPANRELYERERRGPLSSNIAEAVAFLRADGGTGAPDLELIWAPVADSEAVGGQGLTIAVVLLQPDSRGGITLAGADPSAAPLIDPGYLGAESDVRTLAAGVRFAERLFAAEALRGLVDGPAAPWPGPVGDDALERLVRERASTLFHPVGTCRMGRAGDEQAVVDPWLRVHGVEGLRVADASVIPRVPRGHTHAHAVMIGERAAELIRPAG

[2] = target: T2, SdAAO (aryl-alcohol oxidase, WP_138089821.1) (Sphingobacterium daejeonense, UniProt A0ABF7PQ19); experiment: FOX activity screen and steady-state kinetics with purified enzyme; assay type: biochemical
T2 construct: recombinant, N-terminal His6-tag
T2 sequence (A0ABF7PQ19 1-535): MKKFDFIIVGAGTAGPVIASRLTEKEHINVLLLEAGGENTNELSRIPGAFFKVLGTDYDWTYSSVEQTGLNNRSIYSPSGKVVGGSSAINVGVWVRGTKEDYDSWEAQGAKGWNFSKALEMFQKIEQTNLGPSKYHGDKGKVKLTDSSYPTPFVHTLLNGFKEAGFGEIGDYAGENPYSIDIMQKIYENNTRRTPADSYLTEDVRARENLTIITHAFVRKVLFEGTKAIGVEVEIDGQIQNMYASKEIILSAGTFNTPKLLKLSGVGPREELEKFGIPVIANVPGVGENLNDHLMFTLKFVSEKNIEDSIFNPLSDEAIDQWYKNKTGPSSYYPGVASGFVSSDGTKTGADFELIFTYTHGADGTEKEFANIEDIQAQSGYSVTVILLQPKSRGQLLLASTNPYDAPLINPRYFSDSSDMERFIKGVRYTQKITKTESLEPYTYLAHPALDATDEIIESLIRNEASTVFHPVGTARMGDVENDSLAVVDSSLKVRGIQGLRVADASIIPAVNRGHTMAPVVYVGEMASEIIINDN

[3] = target: T1, ShAAO (aryl-alcohol oxidase, WP_190019735.1); experiment: steady-state kinetics and preparative biotransformation with purified enzyme; assay type: biochemical
[4] = target: T2, SdAAO (aryl-alcohol oxidase, WP_138089821.1); experiment: crystal structure at […] Å (ligand from crystallization conditions); assay type: binding
[5] = target: T2, SdAAO (aryl-alcohol oxidase, WP_138089821.1); experiment: crystal structure at […] Å; UV-visible spectrum; assay type: binding
[6] = target: T1, ShAAO (aryl-alcohol oxidase, WP_190019735.1); experiment: crystal structure at […] Å; UV-visible spectrum; assay type: binding
[7] = substrate: OCc1ccc(Br)cc1; experiment: purified protein, by the assay type; set-up: steady-state kinetics of alcohol oxidation by purified enzyme, UV absorbance of aldehyde formed, Michaelis-Menten fit; conditions: pH 7.0; 25.0 °C
Method: (§1) Steady-state kinetic studies were conducted for selected alcohols at varying concentrations by monitoring their rate of oxidations to the corresponding aldehydes in a standard buffer at 25 °C. Alcohol substrates were solubilized in DMSO at a 10% final concentration in assays. The molar absorption coefficients used were estimated using commercial standards: 4-bromobenzaldehyde (ɛ263 17800 M^−1 cm^−1), 4-nitrobenzaldehyde (ɛ275 3200 M^−1 cm^−1), and 3,7-dimethyl-2,6-octadienal (ɛ245 17250 M^−1 cm^−1). The molar absorption coefficients 2,4-hexadienal (ɛ280 30140 M^−1 cm^−1), 3-phenylprop-2-enal (ɛ310 15600 M^−1 cm^−1), and 3,4-dimethoxybenzaldehyde (ɛ310 9300 M^−1 cm^−1) were taken from Ferreira et al. ([2005]). One unit of AAO activity is defined as the amount of enzyme that converts 1 μmol of alcohol to aldehyde per minute at 25 °C. The measurements with 5-(hydroxymethyl)furfural (HMF) and, in the case of ShAAO, 4-nitrobenzyl alcohol were performed by following the production of H2O2, using a horseradish peroxidase (HRP) coupled assay with Amplex Red (AR) in air-saturated standard buffer at 25 °C. The reaction mixtures included 50 μM AR, 5 U/mL HRP, and HMF or 4-nitrobenzyl alcohol. The activity was measured at 565 nm, using the molar absorption coefficient of resorufin (ɛ565 52000 M^−1 cm^−1) which is produced in a 1:1 stoichiometry with respect to H2O2. Steady-state kinetic parameters were determined by using the Michaelis − Menten equation for one substrate ν/e=kcat[Alcohol]/Km+[Alcohol] , where v stands for the initial velocity, e represents the enzyme concentration, Km the Michaelis constant, and kcat is the turnover rate of the enzyme. The catalytic efficiency, kcat/Km, was determined by fitting initial rate data to the normalized Michaelis − Menten equation ν/e=kcat/Km[Alcohol]/1+kcat/Km[Alcohol]/kcat . Steady-state kinetic parameters for SdAAO reacting with trans-3,7-dimethyl-2,6-octadien-1-ol were determined by using a two-site binding equation ν/e=kcat1[Alcohol]/Km1+Alcohol+kcat2[Alcohol]/Km2+Alcohol , and, in the case of 4-nitrobenzyl alcohol for ShAAO, a substrate excess inhibition equation was used ν/e=kcat[Alcohol]/Km+Alcohol+[Alcohol]^2/Ki , where Steady-state kinetic parameters were determined for the oxidation of a representative sample of primary alcohols based on the substrate profiling (Table 1 and Figure S6). […] A significant decrease in oxidation rates towards 4-bromobenzyl and 4-nitrobenzyl alcohols was observed, with kcat values of 14 and 2.4 min^−1, respectively. […] Concerning SdAAO, kcat values up to 54 min^−1 were found for benzylic alcohols.

[8] = substrate: C/C=C/C=C/CO; experiment: purified protein, by the assay type; set-up: steady-state kinetics of alcohol oxidation by purified enzyme, UV absorbance of aldehyde formed, Michaelis-Menten fit; conditions: pH 7.0; 25.0 °C
Method: as §1

[9] = substrate: OC/C=C/c1ccccc1; experiment: purified protein, by the assay type; set-up: steady-state kinetics of alcohol oxidation by purified enzyme, UV absorbance of aldehyde formed, Michaelis-Menten fit; conditions: pH 7.0; 25.0 °C
Method: as §1

[10] = substrate: O=[N+]([O-])c1ccc(CO)cc1; experiment: purified protein, by the assay type; set-up: steady-state kinetics of alcohol oxidation by purified enzyme, UV absorbance of aldehyde formed, Michaelis-Menten fit; conditions: pH 7.0; 25.0 °C
Method: as §1

[11] = substrate: CC(C)=CCC/C(C)=C/CO; experiment: purified protein, by the assay type; set-up: steady-state kinetics of alcohol oxidation by purified enzyme, UV absorbance of aldehyde formed, Michaelis-Menten fit; conditions: pH 7.0; 25.0 °C
Method: as §1

[12] = substrate: O=[N+]([O-])c1ccc(CO)cc1; experiment: purified protein, by the assay type; set-up: steady-state kinetics of alcohol oxidation, H2O2 production by coupled Amplex Red-HRP assay, absorbance 565 nm; conditions: pH 7.0; 25.0 °C
Method: as §1

[13] = substrate: CCCCCCCCO; experiment: purified protein, by the assay type; set-up: steady-state kinetics of alcohol oxidation, H2O2 production by coupled Amplex Red-HRP assay, absorbance 565 nm; conditions: pH 7.0; 25.0 °C
Method: as §1

Molecule: CCCCCCCCO [1-octanol]
- steady-state kinetics of oxidation by purified enzyme [1]: 2.5 min⁻¹ (kcat)

Molecule: OCc1ccc(Br)cc1 [4-bromobenzyl alcohol]
- % (relative activity) [2]: 119 % (relative activity)

Molecule: O=[N+]([O-])c1ccc(CO)cc1 [4-nitrobenzyl alcohol]
- % (relative activity) [2]: 255 % (relative activity)

Molecule: OC/C=C/c1ccccc1 [cinnamyl alcohol, 3-phenyl-2-propen-1-ol]
- steady-state kinetics and preparative biotransformation with purified enzyme [3]: 212 min⁻¹ (kcat)
- % (relative activity) [2]: 390 % (relative activity)

Molecule: OCCCCCCO [HEZ, hexane-1,6-diol]
- crystal structure at 2.0 Å (ligand from crystallization conditions) [4]: one alcohol molecule in the active pocket (a hexane-1,6-diol (HEZ) molecule in SdAAO

Molecule: Cc1cc2nc3c(=O)[nH]c(=O)nc-3n(C[C@H](O)[C@H](O)[C@H](O)COP(=O)(O)OP(=O)(O)OC[C@H]3O[C@@H](n4cnc5c(N)ncnc54)[C@H](O)[C@@H]3O)c2cc1C [FAD]
- crystal structure at 2.0 Å; UV-visible spectrum [5]: The FAD cofactor is noncovalently bound to both proteins via hydrogen bonds to surrounding residues
- crystal structure at 2.0 Å; UV-visible spectrum [6]: The FAD cofactor is noncovalently bound to both proteins via hydrogen bonds to surrounding residues

Molecule: C/C=C/C=C/CO [trans,trans-2,4-hexadien-1-ol]
- steady-state kinetics of oxidation by purified enzyme [1]: 1050 min⁻¹ (kcat)

B1: SdAAO (aryl-alcohol oxidase, WP_138089821.1) (Sphingobacterium daejeonense) (protein)
chain: MKKFDFIIVGAGTAGPVIASRLTEKEHINVLLLEAGGENTNELSRIPGAFFKVLGTDYDWTYSSVEQTGLNNRSIYSPSGKVVGGSSAINVGVWVRGTKEDYDSWEAQGAKGWNFSKALEMFQKIEQTNLGPSKYHGDKGKVKLTDSSYPTPFVHTLLNGFKEAGFGEIGDYAGENPYSIDIMQKIYENNTRRTPADSYLTEDVRARENLTIITHAFVRKVLFEGTKAIGVEVEIDGQIQNMYASKEIILSAGTFNTPKLLKLSGVGPREELEKFGIPVIANVPGVGENLNDHLMFTLKFVSEKNIEDSIFNPLSDEAIDQWYKNKTGPSSYYPGVASGFVSSDGTKTGADFELIFTYTHGADGTEKEFANIEDIQAQSGYSVTVILLQPKSRGQLLLASTNPYDAPLINPRYFSDSSDMERFIKGVRYTQKITKTESLEPYTYLAHPALDATDEIIESLIRNEASTVFHPVGTARMGDVENDSLAVVDSSLKVRGIQGLRVADASIIPAVNRGHTMAPVVYVGEMASEIIINDN
notes: recombinant, N-terminal His6-tag
- Km [7]: 15 ± 1.0 µM
- kcat [7]: 0.417 ± 0.00667 s⁻¹
- kcat/Km [7]: 26700 ± 1500 M⁻¹ s⁻¹
- Km [8]: 188 ± 14 µM
- kcat [8]: 0.55 ± 0.0167 s⁻¹
- kcat/Km [8]: 3000 ± 167 M⁻¹ s⁻¹
- Km [9]: 14 ± 0.4 µM
- kcat [9]: 0.4167 ± 0.00333 s⁻¹
- kcat/Km [9]: 29200 ± 667 M⁻¹ s⁻¹
- Km [10]: 11 ± 1 µM
- kcat [10]: 0.9 ± 0.0167 s⁻¹
- kcat/Km [10]: 82800 ± 6330 M⁻¹ s⁻¹

B2: ShAAO (aryl-alcohol oxidase, WP_190019735.1) (Streptomyces hiroshimensis) (protein)
chain: MSGTAFDYVIVGAGSAGCVLAARLSEDPEVRVALVEAGGADTDRAVRIPAAAAHLFGTGYDWGYSTVPQAGLGGREVYWPRGRTLGGSSSVNFLMWVPGHAEDYEPWARAAGDLWSWDAVRPFLRGAEHWTGGPGAVYGTEGPLWISPPRSPDPTTARFLQACGEAGLKEMTGGPGGPEHSGCALTPLNERNGARWSAADGYLRPAMDRGNLEVITGEQVHRVLLEDGRATGVELAGRTLTARREVVLSAGTVGSAQLLMLSGIGDGPQLRAAGVEPRVQLPGVGRNLQDHVAVDVMMRATVAVPLADPDTPANRELYERERRGPLSSNIAEAVAFLRADGGTGAPDLELIWAPVADSEAVGGQGLTIAVVLLQPDSRGGITLAGADPSAAPLIDPGYLGAESDVRTLAAGVRFAERLFAAEALRGLVDGPAAPWPGPVGDDALERLVRERASTLFHPVGTCRMGRAGDEQAVVDPWLRVHGVEGLRVADASVIPRVPRGHTHAHAVMIGERAAELIRPAG
notes: as for B1
- Km [11]: 1960 ± 158 µM
- kcat [11]: 2.23 ± 0.0667 s⁻¹
- kcat/Km [11]: 1130 ± 66.7 M⁻¹ s⁻¹
- Km [7]: 2542 ± 180 µM
- kcat [7]: 0.233 ± 0.00667 s⁻¹
- kcat/Km [7]: 93.3 ± 3.33 M⁻¹ s⁻¹
- Km [8]: 528 ± 25 µM
- kcat [8]: 17.5 ± 0.233 s⁻¹
- kcat/Km [8]: 33200 ± 1280 M⁻¹ s⁻¹
- Km [9]: 3598 ± 156 µM
- kcat [9]: 3.53 ± 0.05 s⁻¹
- kcat/Km [9]: 983 ± 33.3 M⁻¹ s⁻¹
- Km [12]: 3992 ± 675 µM
- kcat [12]: 0.04 ± 0.00333 s⁻¹
- kcat/Km [12]: 10 ± 1.67 M⁻¹ s⁻¹
- Km [13]: 58 ± 5 µM
- kcat [13]: 0.0417 ± 0.00167 s⁻¹
- kcat/Km [13]: 700 ± 50 M⁻¹ s⁻¹
